Results as given in PMC12115182, “Inhibition of RPA32 and Cytotoxic Effects of the Carnivorous Plant Sarracenia purpurea Root Extract in Non-Small-Cell Lung Cancer Cells”.

Target: huRPA32 (human RPA32) (human, UniProt P15927 1-270)
Experiment: EMSA; [Protein]50 by linear interpolation; DNA 30 fmol/uL; no extract; 40 mM Tris-HCl pH 7.5, 50 mM NaCl, 37 C, 60 min; 8% native PAGE in TBE, 100 V 1 h
Settings: protein: recombinant; single-stranded

Chain of huRPA32 (human RPA32) (P15927 whole entry): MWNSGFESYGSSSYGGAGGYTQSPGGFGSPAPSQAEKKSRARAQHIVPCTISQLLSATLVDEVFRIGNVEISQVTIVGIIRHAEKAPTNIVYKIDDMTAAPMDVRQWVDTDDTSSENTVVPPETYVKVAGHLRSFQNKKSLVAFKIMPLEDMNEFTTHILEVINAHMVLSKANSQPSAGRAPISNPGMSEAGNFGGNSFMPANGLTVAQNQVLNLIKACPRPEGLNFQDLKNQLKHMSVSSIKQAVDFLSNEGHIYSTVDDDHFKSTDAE

TTTTTTTTTTTTTTTTTTTTTTTTT (ssDNA) [dT25]
apparent K (half saturation): 5.7 ± 0.6 µM
